In paper PMC5902328:

Substrate: N
Test: purified protein
Conditions: aminating direction, co-substrate Fru6P, saturating, no GlcNAc6P activator, 37 °C

B1: Amuc-NagB (Akkermansia muciniphila ATCC BAA-835) (protein)
chain: MIGVESSRVMRAAPRKAVGRVEASVPWDFSRKYAAVHHSGTISVENARKRSKIGRVMKVETFETPQDAAKALAGEVAELIRTRAAEGKNVVLGLATGATPLPFYAELVRMHKEEGLSFANVISFNLDEYSGLDRDHPESYWYFMHTNLFNHIDIKPENINLPSGTVKDDEIAAHCAAYEQKIKDCGGIDLQILGIGRTGHIGFNEPGSDDTTVTRQVHLDELTRSDAAPAFGGIENVPTTAITMGVATIMGAREVALMAWGEKKASIVKKAVQGPVTVDVAASYLQKHPNAKFLLDKGAASLL
Km: 41.3 ± 12.8 mM
